# Assay results from article PMC6270800, “The Effect of Mini-PEG-Based Spacer Length on Binding and Pharmacokinetic Properties of a ^68Ga-Labeled NOTA-Conjugated Antagonistic Analog of Bombesin” (Molecules, 2014).
# Key:
# [1] = format: physicochemical; details: pH 7.4
# Protocol: Aliquots of 50 μL were taken from each phase, and their radioactivity was measured in an automated gamma-counter with 3-inch NaI(Tl) detector (1480 WIZARD, Wallac OyTurku, Finland). Each measurement was repeated nine times. The distribution coefficient was calculated as the average log of a ratio of the radioactivity in the octanol and the PBS fractions.
# [2] = in vivo; details: female, NMRI, mouse, iv, 45 pmol, total radioactivity
# Protocol: The biodistribution of ^68Ga-labeled NOTA-PEGn-RM26 was evaluated in female NMRI mice (weight: 30 ± 3 g).
# Female NMRI mice (3 mice per data point) were injected with 45 pmol of ^68Ga-NOTA-PEGn-RM26 (350 or 700 kBq, 100 µL in PBS) into the tail vein. The administrated peptide dose was adjusted to 45 pmol by dilution with non-labeled NOTA-PEGn-RM26. The mice were euthanized at 1 and 2 h p.i. by intraperitoneal injection of a Ketalar-Rompun solution (10 mg/mL Ketalar and 1 mg/mL Rompun; 20 µL of solution per gram of body weight). Blood samples were collected by heart puncture. The organs of interest were collected, weighed, and their radioactivity content was measured in the gamma-counter. The organ uptake values are expressed as %ID/g except for gastrointestinal (GI) tract (with content) and carcass in which data are presented as %ID per whole sample.
# [3] = tested on: PC-3 cells; experiment: Cellular uptake and internalization assay, PC-3 cells; format: cell-based, human; details: ^111In-labeled, 24 h continuous incubation, 2 nM, 37 °C
# Protocol: (§1) GRPR expressing human PC cell line PC-3 and human BC cell line BT-474 (ATCC) were cultured in RPMI media complemented with 10% FBS, 2 mM L-glutamine and PEST (penicillin 100 IU/mL) (all from Biochrom AG, Berlin, Germany). This media is referred as complete media in the text. In all in vitro experiments, cells were incubated in complete medium and detached using trypsin-EDTA solution (0.25% trypsin, 0.02% EDTA in buffer; Biochrom AG). All experiments were performed in triplicate and 1 × 10^6 cells/dish were seeded one day before the experiment.
# (§2) At predetermined time points, the incubation media was discarded, the cells were washed and the membrane-bound and internalized radioactivity were collected using the method described earlier.
# [4] = tested on: BT-474 cells; experiment: Cellular uptake and internalization assay, BT-474 cells; format: cell-based, human; details: ^111In-labeled; BT474 cells; 24 h continuous incubation, 2 nM, 37 °C
# Protocol: as §1, §2
# [5] = tested on: BT-474 xenografts; format: in vivo, BALB/c nu/nu mice; details: BT-474 tumors; 2 h p.i.
# Protocol: (§3) To study tumor targeting, female BALB/c nu/nu mice bearing PC-3 and BT-474 xenografts (4 mice per data point) were intravenously injected with 45 pmol of ^68Ga-NOTA-PEG3-RM26 (700 kBq, 100 µL in PBS). The mice were euthanized at 2 h p.i. and the organ radioactivity content was measured and evaluated as described above. To test the in vivo binding specificity, a group of animals was co-injected with 20 nmol of unlabeled peptide, and biodistribution was measured at 2 h p.i.
# [6] = tested on: PC-3 xenografts; format: in vivo, BALB/c nu/nu mice; details: PC-3 tumors; 2 h p.i.
# Protocol: as §3
SMILES,LogD of ^68Ga-NOTA-PEGn-RM26 [1],tissue uptake dose at 1 h ([2]; Uptake in GI (with content)) [%ID],tissue uptake dose at 2 h ([2]; Uptake in GI (with content)) [%ID],tissue uptake dose at 1 h ([2]; Uptake in carcass) [%ID],tissue uptake dose at 2 h ([2]; Uptake in carcass) [%ID],logD [1],"Internalization rate, % internalized radioactivity from total cell associated [3] [%]","Internalization rate, % internalized radioactivity from total cell associated [4] [%]",Decrease of tumor uptake by co-injection of non-labeled peptide [5],Decrease of tumor uptake by co-injection of non-labeled peptide [6] [fold]
CC(C)C[C@H](NC(=O)C[C@H](O)[C@H](CC(C)C)NC(=O)[C@H](Cc1c[nH]cn1)NC(=O)CNC(=O)[C@@H](NC(=O)[C@H](C)NC(=O)[C@H](Cc1c[nH]c2ccccc12)NC(=O)[C@H](CCC(N)=O)NC(=O)[C@@H](Cc1ccccc1)NC(=O)COCCOCCNC(=O)CN1CCN(CC(=O)O)CCN(CC(=O)O)CC1)C(C)C)C(N)=O [PEG2],−2.27 ± 0.07,4 ± 2,2.88 ± 0.06,4 ± 1,0.9 ± 0.4,,,,,
CC(C)C[C@H](NC(=O)C[C@H](O)[C@H](CC(C)C)NC(=O)[C@H](Cc1c[nH]cn1)NC(=O)CNC(=O)[C@@H](NC(=O)[C@H](C)NC(=O)[C@H](Cc1c[nH]c2ccccc12)NC(=O)[C@H](CCC(N)=O)NC(=O)[C@@H](Cc1ccccc1)NC(=O)CCOCCOCCOCCNC(=O)CN1CCN(CC(=O)O)CCN(CC(=O)O)CC1)C(C)C)C(N)=O [PEG3],,3.7 ± 0.8,2.5 ± 0.7,2.1 ± 0.4,0.7 ± 0.1,-2.47 ± 0.06,31 ± 2,32 ± 2,,
CC(C)C[C@H](NC(=O)C[C@H](O)[C@H](CC(C)C)NC(=O)[C@H](Cc1c[nH]cn1)NC(=O)CNC(=O)[C@@H](NC(=O)[C@H](C)NC(=O)[C@H](Cc1c[nH]c2ccccc12)NC(=O)[C@H](CCC(N)=O)NC(=O)[C@@H](Cc1ccccc1)NC(=O)CCOCCOCCOCCOCCNC(=O)CN1CCN(CC(=O)O)CCN(CC(=O)O)CC1)C(C)C)C(N)=O [PEG4],,3.5 ± 0.6,3.1 ± 0.9,2.3 ± 0.5,1.2 ± 0.3,-2.49 ± 0.1,,,,
CC(C)C[C@H](NC(=O)C[C@H](O)[C@H](CC(C)C)NC(=O)[C@H](Cc1c[nH]cn1)NC(=O)CNC(=O)[C@@H](NC(=O)[C@H](C)NC(=O)[C@H](Cc1c[nH]c2ccccc12)NC(=O)[C@H](CCC(N)=O)NC(=O)[C@@H](Cc1ccccc1)NC(=O)CCOCCOCCOCCOCCOCCOCCNC(=O)CN1CCN(CC(=O)O)CCN(CC(=O)O)CC1)C(C)C)C(N)=O [PEG6],−2.50 ± 0.09,2.8 ± 0.2,1.8 ± 0.5,3 ± 1,0.71 ± 0.05,,35 ± 2,,,
"CC(C)C[C@H](NC(=O)C[C@H](O)[C@H](CC(C)C)NC(=O)[C@H](Cc1c[nH]cn1)NC(=O)CNC(=O)[C@@H](NC(=O)[C@H](C)NC(=O)[C@H](Cc1c[nH]c2ccccc12)NC(=O)[C@H](CCC(N)=O)NC(=O)[C@@H](Cc1ccccc1)NC(=O)COCCOCCNC(=O)CN1CCN(CC(=O)O)CCN(CC(=O)O)CC1)C(C)C)C(N)=O [^68Ga-NOTA-PEG2-RM26, metal not drawn]",,,,,,-2.27 ± 0.07,,,,
"CC(C)C[C@H](NC(=O)C[C@H](O)[C@H](CC(C)C)NC(=O)[C@H](Cc1c[nH]cn1)NC(=O)CNC(=O)[C@@H](NC(=O)[C@H](C)NC(=O)[C@H](Cc1c[nH]c2ccccc12)NC(=O)[C@H](CCC(N)=O)NC(=O)[C@@H](Cc1ccccc1)NC(=O)CCOCCOCCOCCNC(=O)CN1CCN(CC(=O)O)CCN(CC(=O)O)CC1)C(C)C)C(N)=O [^68Ga-NOTA-PEG3-RM26, metal not drawn]",,,,,,,,,more than 7 fold,~5
"CC(C)C[C@H](NC(=O)C[C@H](O)[C@H](CC(C)C)NC(=O)[C@H](Cc1c[nH]cn1)NC(=O)CNC(=O)[C@@H](NC(=O)[C@H](C)NC(=O)[C@H](Cc1c[nH]c2ccccc12)NC(=O)[C@H](CCC(N)=O)NC(=O)[C@@H](Cc1ccccc1)NC(=O)CCOCCOCCOCCOCCOCCOCCNC(=O)CN1CCN(CC(=O)O)CCN(CC(=O)O)CC1)C(C)C)C(N)=O [^68Ga-NOTA-PEG6-RM26, metal not drawn]",,,,,,-2.5 ± 0.09,,,,
